Laboratory results as given in patent publication CN111690066A.

Tests used:
[1] = biological target: 自产IL-4Rα重组蛋白 (in-house human recombinant IL-4Rα, residues 26-232 of NP_000409.1, expressed in 293F cells) (human) (UniProt P24394); assay: indirect ELISA
[2] = biological target: 近岸购买的IL-4Rα重组蛋白 (IL-4Rα, Novoprotein, Cat#CS33) (human) (UniProt P24394); assay: indirect ELISA
[3] = biological target: IL-4Rα on TF-1 cells (human) (UniProt P24394); assay: cell-based or functional assay

Substance: Tab1 (dupilumab) (antibody)
- EC50 [1]: 0.25 nM
- EC50 [2]: 0.25 nM
- EC50 of neutralisation of IL-4-induced TF-1 cell proliferation [3]: 0.18 nM
- EC50 of neutralisation of IL-13-induced TF-1 cell proliferation [3]: 0.073 nM
